# Source: patent publication US20220401480A1 (NOILE IMMUNE BIOTECH, published 2022)
# T1: recombinant fusion protein including mouse PD-1 and immunoglobulin Fc portion (mouse, UniProt Q02242 25-167, limits assumed)
# T1 construct: also called mouse PD-1-Fc; not shown: immunoglobulin Fc portion
# T1 sequence (looked up): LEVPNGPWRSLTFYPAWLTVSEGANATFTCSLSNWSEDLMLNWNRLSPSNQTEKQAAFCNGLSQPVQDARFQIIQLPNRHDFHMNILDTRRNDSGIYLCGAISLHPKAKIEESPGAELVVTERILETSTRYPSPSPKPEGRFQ
# B1: anti-mPD-1 scFv (anti-mouse-PD-1 scFv with FLAG tag and His tag, secreted by transduced mouse T cells) (scFv)
# scFv: QFVLTQPKTVSESLGRTVTISCKRSSGSVGDYYVSWHQQRFGSSPKTVIYLDDERPSGVPKRFSGSIDSSSNSASLTITDLQTDDEADYFCLSYDSNNHFVFGSGTHLTVLGGGGSGGGGSGGGGSEVQLVESGGGLAQPGKSLKLSCEASGFTFSDYGMNWFRQAPGKGLEWVAYISSGSNKITYADTVKGRFTVSRDNGKNQLFLQMNNLKSEDTAIYYCVDSGFNSYSDVWGQGIQVTVSSDYKDDDDKFVEHHHHHH
# notes: It was tested as conditioned medium and was not purified; also called anti-PD-1 scFv
# Target: T1, recombinant fusion protein including …
# Assay: ELISA: mouse PD-1-Fc immobilized in wells; scFv from conditioned medium of conv./PD-1 and 7x19/PD-1 CAR-T cells captured; detected with anti-FLAG tag or anti-6xHis tag; signal observed for both (FIG. 15)
# Experimental: Prior to using various CAR-T cells in experiments, the concentration of anti-mPD-1 scFv (also referred to PD-1scFv) was measured using two kinds of ELISA kit. Specifically, a conditioned medium of the untransduced T cells, the anti-hCD20-CAR-expressing T cells, the anti-hCD20 CAR-IL-7/CCL19-expressing T cells, the anti-hCD20-CAR-anti-PD-1-antibody-expressing T cells, or the anti-hCD20-CAR-IL-7/CCL19-anti-PD-1-antibody-expressing T cells was collected after 2 days of cultivation, and the concentrations of […] in the conditioned medium were measured using ELISA. In the ELISA, a recombinant fusion protein including mouse PD-1 and immunoglobulin Fc portion was immobilized in the wells, PD-1 scFv was captured thereto, and an anti-FLAG tag or anti-6xHis tag was used for detection. In FIG. 15, the average value over the triplicate wells as well as the standard deviation thereof are indicated in the graph. In each graph, data are arranged from the left to the right: the untransduced T cells (uninf.), the anti-hCD20-CAR-expressing T cells (conv.), the anti-hCD20 CAR-IL-7/CCL19-expressing T cells (7×19), the anti-hCD20-CAR-anti-PD-1-antibody-expressing T cells (conv./PD-1), the anti-hCD20-CAR-IL-7/CCL19-anti-PD-1-antibody-expressing T cells (7×19/PD-1), and a culture medium only (data obtained by performing the same treatment on the culture liquid to which T cells were not added).
binder,measurement,value
B1,binding result,binds
